Consider five molecules from US7049122B2, “Mutant-type lipases and applications thereof” (priority 2001, dated 2006).

The test system of data set [1] is CCCC(=O)Oc1ccc([N+](=O)[O-])cc1. The data set is described as follows: Kinetic analysis of hydrolysis of p-nitrophenyl butyrate (p-nitrophenol formation), mutant V649I. As to conditions: other: V649I, substrate p-nitrophenyl butyrate, 50 mM phosphate buffer (pH 6.0), 37° C., means ± standard error, three experiments. The format is biochemical, Staphylococcus epidermidis. The text has this:
(§1) The mutant-type lipase is preferably obtained from site-directed mutagenesis of a lipase isolated from Staphylococcus, most favorably Staphylococcus epidermidis. The mutant lipase from Stapylococcus epidermidis that has an alanine residue replacing the methionine residue which immediately follows the serine residue of the Ser-His-Asp catalytic triad has the amino acid sequence of SEQ ID NO: 15. The mutant lipase from Stapylococcus epidermidis that has an isoleucine residue replacing the valine residue which immediately follows the histidine residue of the Ser-His-Asp catalytic triad has the amino acid sequence of SEQ ID NO: 17.
(§2) The purified enzymes and substrate p-nitrophenyl butyrate (2.64 mM predissolved in 2.1% Triton X-100) were mixed in 50 mM phosphate buffer (pH 6.0). The reactions were carried out at 37° C. for 15 min and were terminated by the addition of acetone (1:1, v/v) (Kazlauskas 1994). The absorption values of the reaction product (p-nitrophenol) at 346 nm were determined, and the hydrolase activity (a general indicator for the lipolytic activity) of the purified enzymes was obtained, after converting the absorption values into mmols of p-nitrophenol quantity (at pH 6.0) curve. The molar extinction coefficient of p-nitrophenol under this condition was 2988[…].

The test system is the same in data set [2]. Description: Kinetic analysis of hydrolysis of p-nitrophenyl butyrate (p-nitrophenol formation), mutant H648K. The format is biochemical, Staphylococcus epidermidis. As to conditions: other: H648K, substrate p-nitrophenyl butyrate, 50 mM phosphate buffer (pH 6.0), 37° C., means ± standard error, three experiments. On the procedure:
as §2

For data set [3] the test system is unchanged. The data set is described as follows: Kinetic analysis of hydrolysis of p-nitrophenyl butyrate (p-nitrophenol formation), mutant M419A. The conditions noted are these: other: M419A, substrate p-nitrophenyl butyrate, 50 mM phosphate buffer (pH 6.0), 37° C., means ± standard error, three experiments. The format is biochemical, Staphylococcus epidermidis.
Text: as §1, §2
(§3) The mutation apparently affected the enzyme's ability to stabilize the transition state more than it affected the substrate binding ability of the enzyme. […] The kcat/Km ratio is the pertinent parameter to determine kinetic efficiency of an enzyme.

Data set [4] deals with Staphylococcus epidermidis strain 9 lipase variant V649I (Val-649 to Ile), SEQ ID NO:17 (Staphylococcus epidermidis, UniProt P0C0R3, V649I). The data set is described as follows: Kinetic analysis of hydrolysis of p-nitrophenyl butyrate (p-nitrophenol formation), mutant V649I. The conditions noted are these: V649I vs wild-type; substrate p-nitrophenyl butyrate. The format is biochemical.
Staphylococcus epidermidis strain 9 lipase variant V649I (Val-649 to Ile), SEQ ID NO:17, sequence (P0C0R3 303-688 V649I): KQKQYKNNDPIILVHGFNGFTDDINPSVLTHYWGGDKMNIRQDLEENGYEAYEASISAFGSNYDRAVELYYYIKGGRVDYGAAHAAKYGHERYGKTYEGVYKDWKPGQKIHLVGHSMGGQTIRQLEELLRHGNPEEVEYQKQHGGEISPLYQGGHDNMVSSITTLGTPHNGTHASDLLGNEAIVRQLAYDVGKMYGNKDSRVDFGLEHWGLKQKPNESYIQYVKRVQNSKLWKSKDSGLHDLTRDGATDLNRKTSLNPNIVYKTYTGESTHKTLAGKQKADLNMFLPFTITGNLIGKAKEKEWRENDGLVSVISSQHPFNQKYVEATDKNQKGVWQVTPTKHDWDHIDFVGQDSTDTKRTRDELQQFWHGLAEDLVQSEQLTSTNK
Text: as §1, §2

The target of data set [5] is Staphylococcus epidermidis strain 9 lipase variant M419A (Met-419 to Ala), SEQ ID NO:15 (Staphylococcus epidermidis, UniProt P0C0R3, M419A). Description: Kinetic analysis of hydrolysis of p-nitrophenyl butyrate (p-nitrophenol formation), mutant M419A. The class given is biochemical. The conditions noted are these: M419A vs wild-type; substrate p-nitrophenyl butyrate.
Staphylococcus epidermidis strain 9 lipase variant M419A (Met-419 to Ala), SEQ ID NO:15, sequence (P0C0R3 303-688 M419A): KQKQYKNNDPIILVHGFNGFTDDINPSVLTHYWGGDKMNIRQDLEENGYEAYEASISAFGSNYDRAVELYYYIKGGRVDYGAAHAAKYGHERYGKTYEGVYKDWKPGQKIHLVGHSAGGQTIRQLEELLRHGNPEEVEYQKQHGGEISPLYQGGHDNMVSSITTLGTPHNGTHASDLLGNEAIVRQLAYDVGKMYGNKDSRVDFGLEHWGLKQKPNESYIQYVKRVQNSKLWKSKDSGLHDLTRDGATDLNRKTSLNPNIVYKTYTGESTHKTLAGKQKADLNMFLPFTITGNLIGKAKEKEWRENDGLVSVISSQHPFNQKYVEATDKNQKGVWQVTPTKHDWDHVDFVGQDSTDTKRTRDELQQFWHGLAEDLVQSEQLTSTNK
Text: as §1, §2, §3

In data set [6] the target is Staphylococcus epidermidis strain 9 lipase, wild-type (recombinant 43 kDa "Lys-303" lipase, C-terminal His-tag), SEQ ID NO:14 (Staphylococcus epidermidis, UniProt P0C0R3). Description: Kinetic analysis of hydrolysis of p-nitrophenyl butyrate (p-nitrophenol formation), wild-type lipase. The format is biochemical. The conditions noted are these: substrate p-nitrophenyl butyrate, 50 mM phosphate buffer (pH 6.0), 37° C., means ± standard error, three experiments.
Staphylococcus epidermidis strain 9 lipase, wild-type (recombinant 43 kDa "Lys-303" lipase, C-terminal His-tag), SEQ ID NO:14, sequence (P0C0R3 303-688): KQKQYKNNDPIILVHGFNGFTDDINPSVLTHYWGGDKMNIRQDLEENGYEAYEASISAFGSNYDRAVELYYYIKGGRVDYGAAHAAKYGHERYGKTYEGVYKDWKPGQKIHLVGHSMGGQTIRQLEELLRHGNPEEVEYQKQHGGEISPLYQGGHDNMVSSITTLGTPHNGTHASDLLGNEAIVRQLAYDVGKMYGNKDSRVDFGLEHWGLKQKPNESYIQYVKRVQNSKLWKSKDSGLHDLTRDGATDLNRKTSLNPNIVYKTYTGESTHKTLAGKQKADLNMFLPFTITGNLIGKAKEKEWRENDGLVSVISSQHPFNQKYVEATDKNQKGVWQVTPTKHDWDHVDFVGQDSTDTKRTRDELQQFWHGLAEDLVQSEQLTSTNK
Text: (§4) A fragment of the gehC gene (designated “Lys-303” gene), which encoded an amino acid sequence corresponding to that of the S. epidermidis lipase following proteolytic cleavage between Ala-302 and Lys-303, was synthesized by polymerase chain reaction (PCR) using a chromosomal DNA from a S. epidermidis isolated from a patient in Chang-Gung Hospital (Keelung, Taiwan) as template. The gehC gene is a Staphylococcus epidermidis strain 9 lipase gene. The gene consisted of a single open reading frame of 2064 nucleotides, which encoded a protein of 688 amino acids with a predicted molecular mass of 77 kDa. The Lys-303 gene (SEQ ID NO:13) encoded an active lipase (SEQ ID NO:14), which was about 43 kDa in molecular weight. The Lys-303-encoded lipase is also known as the “43 kDa” or “wild-type” lipase. Two primers: an N-terminal primer of SEQ ID NO:1 (5′-[…]-3′) and a C-terminal primer of SEQ ID NO:2 (5′-[…]-3′) were used in this synthetic process.
as §2, §3

Data set [7] has as its system S. hyicus lipase. As to conditions: Chang et al. (1996); cited from earlier work.
Data set [8] concerns the target Staphylococcus epidermidis strain 9 lipase variant H648K (His-648 to Lys), SEQ ID NO:16 (Staphylococcus epidermidis, UniProt P0C0R3, H648K). The data set is described as follows: Kinetic analysis of hydrolysis of p-nitrophenyl butyrate (p-nitrophenol formation), mutant H648K. The class given is biochemical. The conditions noted are these: H648K vs wild-type, substrate p-nitrophenyl butyrate. The protocol: as §2

In data set [9] the test system is CCCC(=O)Oc1ccc([N+](=O)[O-])cc1. The data set is described as follows: Kinetic analysis of hydrolysis of p-nitrophenyl butyrate (p-nitrophenol formation), wild-type lipase. The class given is biochemical, Staphylococcus epidermidis. As to conditions: other: wild-type, substrate p-nitrophenyl butyrate, 50 mM phosphate buffer (pH 6.0), 37° C., means ± standard error, three experiments.
Text: as §4, §2, §3

Staphylococcus epidermidis strain 9 lipase variant H648K (His-648 to Lys), SEQ ID NO:16, sequence (P0C0R3 303-688 H648K): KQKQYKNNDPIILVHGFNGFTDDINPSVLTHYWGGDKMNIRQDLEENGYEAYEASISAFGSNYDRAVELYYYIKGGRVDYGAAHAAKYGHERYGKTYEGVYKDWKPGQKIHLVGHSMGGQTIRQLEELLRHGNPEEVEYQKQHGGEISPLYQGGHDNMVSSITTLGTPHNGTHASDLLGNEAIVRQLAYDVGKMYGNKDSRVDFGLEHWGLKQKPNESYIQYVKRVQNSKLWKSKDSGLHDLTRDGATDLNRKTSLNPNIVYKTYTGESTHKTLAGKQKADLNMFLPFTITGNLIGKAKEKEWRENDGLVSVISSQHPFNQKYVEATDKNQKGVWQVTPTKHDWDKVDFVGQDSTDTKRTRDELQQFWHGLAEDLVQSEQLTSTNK

Turning to “Staphylococcus epidermidis strain 9 lipase variant V649I (Val-649 to Ile), SEQ ID NO:17 (Staphylococcus epidermidis; V649I)”, in data set [1], the Km turned out to be 3020 ± 210 µM, the kcat was determined as 336 ± 15.7 s⁻¹ and the kcat/Km was 111000 M⁻¹ s⁻¹.
On to “Staphylococcus epidermidis strain 9 lipase variant H648K (His-648 to Lys), SEQ ID NO:16 (Staphylococcus epidermidis; H648K)”, for which, in data set [2], the Km worked out at 950 ± 350 µM, the kcat amounted to 2.6 ± 0.9 s⁻¹ and the kcat/Km came out at 2700 M⁻¹ s⁻¹.
On to “Staphylococcus epidermidis strain 9 lipase variant M419A (Met-419 to Ala), SEQ ID NO:15 (Staphylococcus epidermidis; M419A)”, for which, in data set [3], the Km was 3970 ± 120 µM, the kcat came out at 218 ± 14 s⁻¹ and the kcat/Km was 54800 M⁻¹ s⁻¹.
As to `CCCC(=O)Oc1ccc([N+](=O)[O-])cc1` [p-nitrophenyl butyrate], in [4], the “increase in kcat in comparison with the wild-type enzyme” value is 13.4 fold and the “increase in the kcat/Km in comparison with the wild-type enzyme” value was 4.0 fold. Moreover, in data set [5], the “increase in catalytic efficiency (kcat/Km) in comparison with the wild-type enzyme” value turned out to be 2.0 fold. The turnover number (kcat) in [6] is 25.1 s⁻¹. In data set [7], the Km was 2070 µM, the kcat is 0.53 s⁻¹ and the kcat/Km was 257 M⁻¹ s⁻¹. In data set [8], the “kcat compared with the wild-type enzyme (decreased to)” value is given as 10.4%. Also, the “change in the Km compared with the wild-type enzyme” value in [8] (in words) is recorded as “little change”.
On to “Staphylococcus epidermidis strain 9 lipase, wild-type (recombinant 43 kDa "Lys-303" lipase, C-terminal His-tag), SEQ ID NO:14 (Staphylococcus epidermidis)”, for which, in data set [9], the Km was determined as 900 ± 80 µM, the kcat came out at 25.1 ± 0.6 s⁻¹ and the kcat/Km was found to be 27900 M⁻¹ s⁻¹.

A word on the Km: it is the concentration of substrate that gives half-maximal velocity. For orientation: kcat means the maximal rate divided by the concentration of active sites. A word on the kcat/Km: it is the turnover number divided by the Michaelis constant.
